The record followed here is US20250195679A1 (SHANGHAI HUAOTA BIOPHARMACEUTICAL, published 2025).

To fix the notation:
T1: human CD73 protein (ACRO Biosystems, Cat. No. CD3-H52H7) (human, UniProt P21589 27-547)
T1 construct: Bought protein; also called recombinant CD73 protein; soluble recombinant CD73 antigen protein
T1 sequence (looked up): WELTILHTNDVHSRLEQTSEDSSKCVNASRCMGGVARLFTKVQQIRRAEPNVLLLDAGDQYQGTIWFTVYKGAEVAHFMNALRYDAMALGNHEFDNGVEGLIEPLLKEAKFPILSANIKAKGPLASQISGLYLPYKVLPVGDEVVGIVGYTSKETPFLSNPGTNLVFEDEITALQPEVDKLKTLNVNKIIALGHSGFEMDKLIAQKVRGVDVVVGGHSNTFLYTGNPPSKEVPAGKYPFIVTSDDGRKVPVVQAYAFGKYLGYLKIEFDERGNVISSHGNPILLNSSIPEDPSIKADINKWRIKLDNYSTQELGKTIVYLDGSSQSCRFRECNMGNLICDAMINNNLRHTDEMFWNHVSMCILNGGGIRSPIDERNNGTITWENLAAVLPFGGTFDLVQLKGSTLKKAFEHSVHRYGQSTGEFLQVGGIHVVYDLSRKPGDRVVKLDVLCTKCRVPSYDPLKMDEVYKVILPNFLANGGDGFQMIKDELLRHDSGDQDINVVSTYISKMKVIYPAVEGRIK

T2: CD73 on the surface of Calu6 cells (UniProt P21589 27-549)
T2 construct: whole, on cells; also called CD73 antigen on the cell surface; CD73 on the cell surface
T2 sequence (looked up): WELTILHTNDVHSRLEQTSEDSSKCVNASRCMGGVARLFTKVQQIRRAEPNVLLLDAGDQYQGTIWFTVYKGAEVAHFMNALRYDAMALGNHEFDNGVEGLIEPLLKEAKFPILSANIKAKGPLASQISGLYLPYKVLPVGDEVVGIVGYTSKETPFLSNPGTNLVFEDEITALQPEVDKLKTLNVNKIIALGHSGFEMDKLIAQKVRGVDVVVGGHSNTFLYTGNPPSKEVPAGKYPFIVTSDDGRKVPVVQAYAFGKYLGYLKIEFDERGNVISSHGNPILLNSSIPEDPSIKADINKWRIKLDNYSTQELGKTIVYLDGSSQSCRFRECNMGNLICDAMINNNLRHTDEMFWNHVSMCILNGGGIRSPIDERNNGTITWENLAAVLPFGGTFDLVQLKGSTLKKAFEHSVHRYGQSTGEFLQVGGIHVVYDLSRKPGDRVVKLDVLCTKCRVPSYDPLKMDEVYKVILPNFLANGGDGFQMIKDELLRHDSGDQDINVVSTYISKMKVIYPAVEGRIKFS

T3: human CD73 expressed on CHOK1-huCD73-3F4 cells (human, UniProt P21589 27-549)
T3 construct: whole, on cells; also called cells expressing human CD73 (CHOK1-huCD73-3F4, Huabo Biopharm); CD73 antigen on the cell surface
T3 sequence (looked up): T2 sequence (looked up)

B1: 900698 antibody (antibody, V domains shown)
VH: QVQLVESGGGLVKPGGSLRLSCAASGFTFSKYAMSWIRQAPGKGLEWVAEISSGGGYINYADSVKGRFTISRDNAKNSLYLQMNSLRAEDTAVYYCARAIYYYGSSYNYYAMDYWGQGTTVTVSS
VL: DIQMTQSPSSLSASVGDRVTITCRASQDVGTAEAWYQQKPGKAPKLLIYWASTRHTGVPSRFSGSGSGTDFTLTISSLQPEDFATYYCQQYSSYPLTFGQGTKLEIK
notes: embodiments say they may derive from human IgG1 and human Ig kappa; It was detected with anti-human Fc and captured on protein A; also called 900698 naked antibody; naked antibody 900698
B2: CD73 antibody-Mc-VC-PAB-DMEDA-PEG-SN38 (antibody, V domains shown)
VH: B1 VH
VL: B1 VL
modifications: SN-38 conjugated through Mc-VC-PAB-DMEDA-PEG linker by cysteine conjugation; DAR about 7.8 for the whole antibody; conjugated cysteines not named
notes: the constant regions that carry the conjugated cysteines are not; also called antibody-drug conjugate 1
B3: CD73 antibody-MP2-VC-PAB-DMEDA-PEG-SN38 (antibody, V domains shown)
VH: B1 VH
VL: B1 VL
modifications: SN-38 conjugated through MP2-VC-PAB-DMEDA-PEG linker by cysteine conjugation; DAR about 7.8 for the whole antibody; conjugated cysteines not named
notes: the constant regions that carry the conjugated cysteines are not; also called antibody-drug conjugate 2
B4: 900725 antibody (antibody, V domains shown)
VH: QVQLVQSGAEVKKPGASVKLSCKASGYTFTSYWIHWVRQAPGQGLEWIGMIHPNSGSTYYNEKFKGRATLTVDKSTSTAYMELSSLRSEDTAVYYCARYYGSDYEWYFDVWGQGTTVTVSS
VL: DIQMTQSPSSMSASVGDRVTITCKASQNVRTAVVWYQQKPGKAPKALIYLASNRHTGVPDRFSGSGSGTDFTLTISSLQPEDFATYFCLQHWNYPYTFGQGTKLEIK
notes: It was detected with anti-human IgG Fc; also called anti-CD73 antibody 900725
B5: BMS-986179 (antibody, human IgG1, kappa, L234A L235A, V domains shown)
VH: QVQLVESGGGVVQPGRSLRLSCAASGFTFSNYGMHWVRQAPGKGLEWVAVILYDGSNKYYPDSVKGRFTISRDNSKNTLYLQMNSLRAEDTAVYYCARGGSSWYPDSFDIWGQGTMVTVSS
VL: DIQMTQSPSSLSASVGDRVTITCRASQGISSWLAWYQQKPEKAPKSLIYAASSLQSGVPSRFSGSGSGTDFTLTISSLQPEDFATYYCQQYNSYPLTFGGGTKVEIKR
notes: also called CD73 positive control antibody BMS-986179

The first assay deals with T4, monkey CD73 protein (Novoprotein, Cat. No. CI21) (monkey).
T4 construct: Bought protein
Put plainly: SPR (Biacore T200), antibody captured on protein A chip, CD73 as analyte, 1:1 model. As for the experimental part: (§1) The binding kinetics of the antibody-drug conjugate 1 and the antibody-drug conjugate 2 prepared in Example 1 and the 900698 naked antibody with a human CD73 protein (manufacturer: ACRO Biosystems, Cat. No. CD3-H52H7) and a monkey CD73 protein (manufacturer: Novoprotein, Cat. No. CI21) were assayed using Biacore (GE, model: T200), with an assay buffer of HBS-EP+ (pH 7.4) and a protein A chip (manufacturer: GE, Cat. No. 29-1275-56).
(§2) The temperature for the sample compartment and the flow path was set to 25° C. The protein A chip captured each antigen-binding protein as a ligand, fixing about 100 RU. The human CD73 protein was diluted with the assay buffer to a series of concentrations of 50 nM, 25 nM, 12.5 nM, 6.25 nM, 3.12 nM, and 1.57 nM, serving as analytes, and the assay buffer was used as a 0 concentration control. At a flow rate of 30 μL/min, association was conducted for 120 s, and dissociation was conducted for 600 s. Glycine (10 mM, pH 1.5) was used for regeneration at a flow rate of 50 μL/min for 60 s in a multi-cycle kinetic assay. A 1:1 binding model was used, and the Fit Local mode was selected to determine the association rate constant (ka), dissociation rate constant (kd), and equilibrium dissociation constant (KD).
In the case of B1, the affinity, expressed as Kd, was 0.121 nM; the koff came to 1.8e-05 s⁻¹; the kon is 148000 M⁻¹ s⁻¹.
As to B2, the Kd stood at 0.0349 nM, the koff came to 1.92e-06 s⁻¹ and the kon stood at 55000 M⁻¹ s⁻¹.
Molecule B3 came in with a Kd of 0.252 nM, a koff of 0.000114 s⁻¹ and a kon of 454000 M⁻¹ s⁻¹.

In the next assay the target is T1, human CD73 protein (ACRO Biosystems, …). The description is as above. As for the experimental part: as §1, §2
B1 returned a Kd of 0.711 nM, a koff of 0.000104 s⁻¹ and a kon of 147000 M⁻¹ s⁻¹.
Regarding B2, the affinity, expressed as Kd, was 0.339 nM; the koff is 0.000129 s⁻¹; the on-rate constant (kon) was 381000 M⁻¹ s⁻¹.
For the molecule B3, binding was put at a Kd of 0.354 nM, the koff is 0.000228 s⁻¹ and the association rate constant (kon) came out at 643000 M⁻¹ s⁻¹.

The next assay has as its target T2, CD73 on the surface of Calu6 cells. Put plainly: flow cytometry on Calu6 cells, antibody at 1 ug/mL, kept at 4 C, PE anti-human IgG Fc detection. As for the experimental part: The endocytosis efficiency of monoclonal antibodies 900698 and 900725 was compared through an endocytosis assay, with the procedures as follows: Anti-CD73 antigen-binding proteins such as the CD73 positive control antibody BMS-986179, 900698, and 900725 were diluted to 1 μg/mL with a PBS solution, with 2 replicate wells set up for each concentration. Calu6 cells in the logarithmic growth phase were taken and prepared into a cell suspension at 2× 10⁵ cells/mL. The cell suspension was then added at 100 μL (about 20000 cells) per well to a 96-well U-bottom plate and centrifuged at 300 g for 3 min, and then the supernatant was discarded. Then, the diluted antigen-binding proteins were each added at 100 μL/well to resuspend the cells, and the mixture was mixed uniformly and incubated at 4° C. for 30 min. After the incubation was completed, the mixture was centrifuged at 300 g for 3 min, and then the supernatant was discarded. The cells were then resuspended in 1% BSA, with half incubated at 37° C. and the other half at 4° C., for an incubation time of 5 h. After the incubation was completed, the wells corresponding to the specified time were removed. The cells in these wells were centrifuged at 300 g for 3 min, and then the supernatant was discarded. PE anti-hulgG Fc (1:200) was then added at 50 μL/well, and the mixture was mixed uniformly and allowed to react at 4° C. for 30 min. After the incubation was completed, the cells were washed twice and centrifuged at 300 g for 3 min, and the fluorescence intensity was detected by flow cytometry. The assay results for the endocytosis of CD73 on the cell surface induced by the anti-CD73 antigen-binding proteins are shown in Table 5 below and FIG. 9. […] 34%. In FIG. 9, the results for BMS-986179, 900725, and 900698 are represented as 1-3, respectively, and NC indicates the result for the condition that only a 1% BSA solution was added without any antibody or antibody-drug conjugate.
For the molecule B4, the “fluorescence intensity at 4° C.” value stood at 13900.
As to B5, the “fluorescence intensity at 4° C.” value is 25700.
Still for that read-out and setting: the figure for B1 is 8940.

For a further assay, the target named is T1, human CD73 protein (ACRO Biosystems, …). Description: cell-based or functional assay.
In the case of B1, the “IC50, inhibition of the enzymatic activity of recombinant CD73 (AMP/ATP, CellTiter-Glo signal)” value was 0.352 µg/mL.
Same read-out and setting: to B2 belongs 0.587 µg/mL; to B3, 0.553 µg/mL.

The target of another assay is T3, human CD73 expressed on …. Description: flow cytometry (PE-MFI, PE-goat anti-human-Fc) on CHOK1-huCD73-3F4 cells expressing human CD73; four-parameter fit table under the curves, unit from the concentration axis. Here is the method:
The binding activity of the antibody-drug conjugate 1 and the antibody-drug conjugate 2 prepared in Example 1 and the 900698 naked antibody to cells expressing human CD73 (CHOK1-huCD73-3F4, Huabo Biopharm) was assayed.
All antigen-binding proteins were diluted to 30 μg/mL with a solution of 1% BSA in PBS (1% BSA/PBS), followed by a 3-fold dilution across 10 gradients. The diluted proteins were each added at 20 μL per well to a 96-well U-bottom plate, with a negative control (adding only 1% BSA/PBS) set up simultaneously. A suspension of cells expressing human CD73 (CHOK1-huCD73-3F4, Huabo Biopharm) in the logarithmic growth phase was taken and centrifuged (1000 rpm×5 min), and then the culture medium was discarded. The cells were resuspended in 1% BSA/PBS until the viable cell density was 1×10⁶ cells/mL, then added at 20 μL (2×10⁴ cells) per well to the 96-well U-bottom plate containing the anti-CD73 antigen-binding proteins, and incubated at room temperature for reaction for 30 min. The reacted cells in the 96-well U-bottom plate were resuspended in 1% BSA/PBS and centrifuged (300 g×3 min), and then the supernatant was discarded. This washing process was performed once. Then, a 1:200 dilution of PE-goat anti-human-Fc (Jackson ImmunoResearch, #109-115-098) was added, and the cells were incubated in the dark at room temperature for reaction for 15 min. The reacted cells in the 96-well U-bottom plate were further resuspended in 1% BSA/PBS and centrifuged (300 g×3 min), and then the supernatant was discarded. This washing process was performed 3 times. Finally, the cells were resuspended in 100 μL of 1% BSA/PBS per well, and the fluorescence intensity in the PE channel was detected using a flow cytometer (BD, #Canto II).
With B1, the EC50 was determined as 1.01 µg/mL.
B2 had an EC50 of 0.659 µg/mL.
B3 came in with a concentration for a half-maximal effect (EC50) of 0.67 µg/mL.

The next assay concerns the target T2, CD73 on the surface of Calu6 cells. Put plainly: cell-based or functional assay.
For the molecule B1, the “Endocytosis efficiency (%)” value was found to be 95.4%.
On the same count and under the same terms, to B2 belongs 95.6%; to B3, 95.8%.

The target is the same in a further assay. Description: cell-based or functional assay. The source holds these as a separate data set.
Regarding B4, the Endocytosis efficiency (%) was determined as 37.5% and the “fluorescence intensity of surface antibody after 5 h at 37° C. (flow cytometry, Calu6 cells)” value was determined as 8710.
The matching figures for B5: 44.2% and 14400.
For B1, in that order: 96.3% and 359.
